# According to US20240218063A1 (HARPOON THERAPEUTICS, published 2024):
# T1: human DLL3 on DLL3 expressing cancer cell lines (human, UniProt Q9NYJ7 27-618)
# T1 sequence: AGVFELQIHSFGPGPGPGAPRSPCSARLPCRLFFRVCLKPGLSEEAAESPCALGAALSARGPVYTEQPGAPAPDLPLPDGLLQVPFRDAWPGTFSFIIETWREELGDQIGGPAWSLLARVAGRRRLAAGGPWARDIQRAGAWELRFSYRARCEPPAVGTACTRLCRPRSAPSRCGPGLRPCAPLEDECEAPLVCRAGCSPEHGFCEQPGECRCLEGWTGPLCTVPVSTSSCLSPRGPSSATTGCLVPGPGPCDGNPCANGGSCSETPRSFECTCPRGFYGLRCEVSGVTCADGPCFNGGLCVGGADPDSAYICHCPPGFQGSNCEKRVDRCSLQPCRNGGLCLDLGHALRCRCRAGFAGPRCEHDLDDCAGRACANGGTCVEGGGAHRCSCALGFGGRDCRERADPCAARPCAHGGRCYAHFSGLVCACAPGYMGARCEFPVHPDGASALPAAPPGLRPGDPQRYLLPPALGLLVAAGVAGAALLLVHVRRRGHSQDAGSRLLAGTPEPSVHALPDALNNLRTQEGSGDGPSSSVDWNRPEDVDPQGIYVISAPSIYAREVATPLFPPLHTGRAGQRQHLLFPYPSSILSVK
# Biological target: T1, human DLL3 on DLL3 expressing cancer …
# Assay: cell-based or functional assay
row,Binder,"TDCC EC50, CHO expressed purified protein"
1,"anti-DLL3 trispecific protein 1A011 (other, not shown: small tags and cut ends) EVQLVESGGGLVQPGGSLTLSCVASGSTSSINAIGWYRRAPGKQRELVAGISSDGSKVYIDSVKGRFTISRDNAKNSVYLQMNSLRAEDTAVYYCYYFRTVSGSSYRYWGQGTLVTVSS",170 pM
2,"anti-DLL3 trispecific protein 1H012 (other, not shown: small tags and cut ends) EVQLVESGGGLVQPGGSLTLSCVASGSTSSINAMGWYRRAPGKQRELVAGISSDGSKVYVDSVKGRFTISRDNAKNSVYLQMNSLRAEDTAVYYCYYFRTVSGSSMPYWGQGTLVTVSS",63 pM
3,"anti-DLL3 trispecific protein 2H02 (other, not shown: small tags and cut ends) EVQLVESGGGLVQPGGSLTLSCVASGSTSSINAMAWYRRAPGKQRELAAGISSDGSKVYADSVKGRFTISRDNAKNSVYLQMNSLRAEDTAVYYCYYFHTVSGSSMRYWGQGTLVTVSS",96 pM
4,"anti-DLL3 trispecific protein 2C04 (other, not shown: small tags and cut ends) EVQLVESGGGLVQPGGSLTLSCVASGSTSSRNAMGWYRRAPGKQRELVAGISSDGSKLYADSVKGRFTISRDNAKNSVYLQMNSLRAEDTAVYYCYYFRTVLGSSMRYWGQGTLVTVSS",43 pM
5,"anti-DLL3 trispecific protein 4D09 (other, not shown: small tags and cut ends) EVQLVESGGGLVQPGGSLTLSCAASGSSVKFLSMAWYRQAPGKKRELVAGISADGSTDYILSVKGRFTISRDNAKNSVYLQMNSLRAEDTAVYYCYAYEWTTRYTYWGQGTLVTVSS",60 pM

# Results, then the binder that gave them:
row,"TDCC EC50, CHO expressed purified protein",Binder
1,72 pM,"anti-DLL3 trispecific protein 2E05 (other, not shown: small tags and cut ends) EVQLVESGGGLVQPGGSLTLSCVASGSPSSINAYGWYRRAPGKQRELVAGISSDGSKVYSDSVKGRFTISRDNAKNSVYLQMNSLRAEDTAVYYCYYFRTVSGSSMSYWGQGTLVTVSS"
2,120 pM,"anti-DLL3 trispecific protein 2E02 (other, not shown: small tags and cut ends) EVQLVESGGGLVQPGGSLTLSCVASGSTSAINAMGWYRRAPGKQRELVAGISSDGSKVYVDSVKGRFTISRDNAKNSVYLQMNSLRAEDTAVYYCYYFRTVSGSSQRYWGQGTLVTVSS"
3,98 pM,"anti-DLL3 trispecific protein 4D011 (other, not shown: small tags and cut ends) EVQLVESGGGLVQPGGSLTLSCAASGSSVRFLSMAWYRQAPGKKRELVAGISVDGSTDYIDSVKGRFTISRDNAKNSVYLQMNSLRAEDTAVYYCYAYRWRTRYTYWGQGTLVTVSS"

# Biological target: T1, human DLL3 on DLL3 expressing cancer …
# Assay: cell-based or functional assay
# Remark: another data set of the same source
row,fold increase in TDCC potency compared to the parental DLL3 binder DH6,Binder
1,> 8 fold,"anti-DLL3 trispecific protein 4H011 (other, not shown: small tags and cut ends) EVQLVESGGGLVQPGGSLTLSCAASGSSVSRLSMAWYRQAPGKKRELVAGISVDGSTDYIDSVKGRFTISRDNAKNSVYLQMNSLRAEDTAVYYCYAYRWTTRLTYWGQGTLVTVSS"
